Measurements published in the supplement of paper PMC5998384.

Tests used:
HeLa Kyoto [1] = experiment: solubility in G1/S (NP-40 vs SDS abundance) (log2 ratio); higher = more soluble; settings: cell cycle stage: G1/S
HeLa Kyoto [2] = experiment: solubility change mitosis vs G1/S (difference of NP-40 vs SDS log2 ratios) (log2 ratio difference); higher = more soluble in mitosis
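Throughout, for solubility change mitosis vs G1/S (difference of NP-40 vs SDS log2 ratios): synchronized HeLa Kyoto cells (double thymidine block for G1/S, nocodazole release for mitosis), protein amounts in NP-40 versus SDS lysates quantified by mass spectrometry, three biological replicates.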
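Throughout, for solubility in G1/S (NP-40 vs SDS abundance): HeLa Kyoto cells arrested at G1/S by double thymidine block, proteins quantified by TMT10plex mass spectrometry in mild NP-40 versus SDS extracts, three biological replicates.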

## MPVHSRGDKKETNHHDEMEVDYAENEGSSSEDEDTESSSVSEDGDSSEMDDEDCERRRMECLDEMSNLEKQFTDLKDQLYKERLSQVDAKLQEVIAGKAPEYLEPLATLQENMQIRTKVAGIYRELCLESVKNKYECEIQASRQHCESEKLLLYDTVQSELEEKIRRLEEDRHSIDITSELWNDELQSRKKRKDPFSPDKKKPVVVSGPYIVYMLQDLDILEDWTTIRKAMATLGPHRVKTEPPVKLEKHLHSARSEEGRLYYDGEWYIRGQTICIDKKDECPTSAVITTINHDEVWFKRPDGSKSKLYISQLQKGKYSIKHS [BRMS1L]
HeLa Kyoto [1]
  solubility in G1/S (log2): -0.0165
HeLa Kyoto [2]
  solubility change mitosis (log2): -0.0561

## MAAWSPAAAAPLLRGIRGLPLHHRMFATQTEGELRVTQILKEKFPRATAIKVTDISGGCGAMYEIKIESEEFKEKRTVQQHQMVNQALKEEIKEMHGLRIFTSVPKR [BOLA3]
HeLa Kyoto [1]
  solubility in G1/S (log2): 0.378
HeLa Kyoto [2]
  solubility change mitosis (log2): 0.234

## MSANEDQEMELEALRSIYEGDESFRELSPVSFQYRIGENGDPKAFLIEISWTETYPQTPPILSMNAFFNNTISSAVKQSILAKLQEAVEANLGTAMTYTLFEYAKDNKEQFMENHNPINSATSISNIISIETPNTAPSSKKKDKKEQLSKAQKRKLADKTDHKGELPRGWNWVDVVKHLSKTGSKDDE [RWDD4]
HeLa Kyoto [1]
  solubility in G1/S (log2): 0.234
HeLa Kyoto [2]
  solubility change mitosis (log2): 0.301

## MAALGHLAGEAAAAPGPGTPCASRGARLPGPVSSARNPSTVCLCPEQPTCSNADSRAHPLGDEGGTASKKQKNKKKTRNRASVANGGEKASEKLAPEEVPLSAEAQAQQLAQELAWCVEQLELGLKRQKPTPKQKEQAIGAIRTLRSKRTPLPRKRQLMHSLFGDYRAQMEAEWREALRALRAAAYSAQVQPVDGATRKKSQRVCRPRSIWRAKATLDMPDEEFRFNFF [C8ORF33]
HeLa Kyoto [1]
  solubility in G1/S (log2): 0.306
HeLa Kyoto [2]
  solubility change mitosis (log2): 0.747

## MEKYVRLQKIGEGSFGKAILVKSTEDGRQYVIKEINISRMSSKEREESRREVAVLANMKHPNIVQYRESFEENGSLYIVMDYCEGGDLFKRINAQKGVLFQEDQILDWFVQICLALKHVHDRKILHRDIKSQNIFLTKDGTVQLGDFGIARVLNSTVELARTCIGTPYYLSPEICENKPYNNKSDIWALGCVLYELCTLKHAFEAGSMKNLVLKIISGSFPPVSLHYSYDLRSLVSQLFKRNPRDRPSVNSILEKGFIAKRIEKFLSPQLIAEEFCLKTFSKFGSQPIPAKRPASGQNSISVMPAQKITKPAAKYGIPLAYKKYGDKKLHEKKPLQKHKQAHQTPEKRVNTGEERRKISEEAARKRRLEFIEKEKKQKDQIISLMKAEQMKRQEKERLERINRAREQGWRNVLSAGGSGEVKAPFLGSGGTIAPSSFSSRGQYEHYHAIFDQMQQQRAEDNEAKWKREIYGRGLPERGILPGVRPGFPYGAAGHHHFPDADDIRKTLKRLKAVSKQANANRQKGQLAVERAKQVEEFLQRKREAMQNKARAEGHMVYLARLRQIRLQNFNERQQIKAKLRGEKKEANHSEGQEGSEEADMRRKKIESLKAHANARAAVLKEQLERKRKEAYEREKKVWEEHLVAKGVKSSDVSPPLGQHETGGSPSKQQMRSVISVTSALKEVGVDSSLTDTRETSEEMQKTNNAISSKREILRRLNENLKAQEDEKGKQNLSDTFEINVHEDAKEHEKEKSVSSDRKKWEAGGQLVIPLDELTLDTSFSTTERHTVGEVIKLGPNGSPRRAWGKSPTDSVLKILGEAELQLQTELLENTTIRSEISPEGEKYKPLITGEKKVQCISHEINPSAIVDSPVETKSPEFSEASPQMSLKLEGNLEEPDDLETEILQEPSGTNKDESLPCTITDVWISEEKETKETQSADRITIQENEVSEDGVSSTVDQLSDIHIEPGTNDSQHSKCDVDKSVQPEPFFHKVVHSEHLNLVPQVQSVQCSPEESFAFRSHSHLPPKNKNKNSLLIGLSTGLFDANNPKMLRTCSLPDLSKLFRTLMDVPTVGDVRQDNLEIDEIEDENIKEGPSDSEDIVFEETDTDLQELQASMEQLLREQPGEEYSEEEESVLKNSDVEPTANGTDVADEDDNPSSESALNEEWHSDNSDGEIASECECDSVFNHLEELRLHLEQEMGFEKFFEVYEKIKAIHEDEDENIEICSKIVQNILGNEHQHLYAKILHLVMADGAYQEDNDE [NEK1]
HeLa Kyoto [1]
  solubility in G1/S (log2): -0.156
HeLa Kyoto [2]
  solubility change mitosis (log2): -0.0529

## MAAALPRTLGELQLYRILQKANLLSYFDAFIQQGGDDVQQLCEAGEEEFLEIMALVGMASKPLHVRRLQKALRDWVTNPGLFNQPLTSLPVSSIPIYKLPEGSPTWLGISCSSYERSSNAREPHLKIPKCAATTCVQSLGQGKSDVVGSLALQSVGESRLWQGHHATESEHSLSPADLGSPASPKESSEALDAAAALSVAECVERMAPTLPKSDLNEVKELLKTNKKLAKMIGHIFEMNDDDPHKEEEIRKYSAIYGRFDSKRKDGKHLTLHELTVNEAAAQLCVKDNALLTRRDELFALARQISREVTYKYTYRTTKSKCGERDELSPKRIKVEDGFPDFQDSVQTLFQQARAKSEELAALSSQQPEKVMAKQMEFLCNQAGYERLQHAERRLSAGLYRQSSEEHSPNGLTSDNSDGQGERPLNLRMPNLQNRQPHHFVVDGELSRLYPSEAKSHSSESLGILKDYPHSAFTLEKKVIKTEPEDSR [NAB1]
HeLa Kyoto [1]
  solubility in G1/S (log2): 0.187
HeLa Kyoto [2]
  solubility change mitosis (log2): 0.105

## MGSLSGLRLAAGSCFRLCERDVSSSLRLTRSSDLKRINGFCTKPQESPGAPSRTYNRVPLHKPTDWQKKILIWSGRFKKEDEIPETVSLEMLDAAKNKMRVKISYLMIALTVVGCIFMVIEGKKAAQRHETLTSLNLEKKARLKEEAAMKAKTE [FAM162A]
HeLa Kyoto [1]
  solubility in G1/S (log2): 0.312
HeLa Kyoto [2]
  solubility change mitosis (log2): 0.327

## MGRGLLRGLWPLHIVLWTRIASTIPPHVQKSVNNDMIVTDNNGAVKFPQLCKFCDVRFSTCDNQKSCMSNCSITSICEKPQEVCVAVWRKNDENITLETVCHDPKLPYHDFILEDAASPKCIMKEKKKPGETFFMCSCSSDECNDNIIFSEEYNTSNPDLLLVIFQVTGISLLPPLGVAISVIIIFYCYRVNRQQKLSSTWETGKTRKLMEFSEHCAIILEDDRSDISSTCANNINHNTELLPIELDTLVGKGRFAEVYKAKLKQNTSEQFETVAVKIFPYEEYASWKTEKDIFSDINLKHENILQFLTAEERKTELGKQYWLITAFHAKGNLQEYLTRHVISWEDLRKLGSSLARGIAHLHSDHTPCGRPKMPIVHRDLKSSNILVKNDLTCCLCDFGLSLRLDPTLSVDDLANSGQVGTARYMAPEVLESRMNLENVESFKQTDVYSMALVLWEMTSRCNAVGEVKDYEPPFGSKVREHPCVESMKDNVLRDRGRPEIPSFWLNHQGIQMVCETLTECWDHDPEARLTAQCVAERFSELEHLDRLSGRSCSEEKIPEDGSLNTTK [TGFBR2]
HeLa Kyoto [1]
  solubility in G1/S (log2): -0.228
HeLa Kyoto [2]
  solubility change mitosis (log2): -0.067

## MLRVVSWNINGIRRPLQGVANQEPSNCAAVAVGRILDELDADIVCLQETKVTRDALTEPLAIVEGYNSYFSFSRNRSGYSGVATFCKDNATPVAAEEGLSGLFATQNGDVGCYGNMDEFTQEELRALDSEGRALLTQHKIRTWEGKEKTLTLINVYCPHADPGRPERLVFKMRFYRLLQIRAEALLAAGSHVIILGDLNTAHRPIDHWDAVNLECFEEDPGRKWMDSLLSNLGCQSASHVGPFIDSYRCFQPKQEGAFTCWSAVTGARHLNYGSRLDYVLGDRTLVIDTFQASFLLPEVMGSDHCPVGAVLSVSSVPAKQCPPLCTRFLPEFAGTQLKILRFLVPLEQSPVLEQSTLQHNNQTRVQTCQNKAQVRSTRPQPSQVGSSRGQKNLKSYFQPSPSCPQASPDIELPSLPLMSALMTPKTPEEKAVAKVVKGQAKTSEAKDEKELRTSFWKSVLAGPLRTPLCGGHREPCVMRTVKKPGPNLGRRFYMCARPRGPPTDPSSRCNFFLWSRPS [APEX2]
HeLa Kyoto [1]
  solubility in G1/S (log2): 0.0896
HeLa Kyoto [2]
  solubility change mitosis (log2): -0.0093

## MAAATVGRDTLPEHWSYGVCRDGRVFFINDQLRCTTWLHPRTGEPVNSGHMIRSDLPRGWEEGFTEEGASYFIDHNQQTTAFRHPVTGQFSPENSEFILQEEPNPHMSKQDRNQRPSSMVSETSTAGTASTLEAKPGPKIIKSSSKVHSFGKRDQAIRRNPNVPVVVRGWLHKQDSSGMRLWKRRWFVLADYCLFYYKDSREEAVLGSIPLPSYVISPVAPEDRISRKYSFKAVHTGMRALIYNSSTAGSQAEQSGMRTYYFSADTQEDMNAWVRAMNQAAQVLSRSSLKRDMEKVERQAVPQANHTESCHECGRVGPGHTRDCPHRGHDDIVNFERQEQEGEQYRSQRDPLEGKRDRSKARSPYSPAEEDALFMDLPTGPRGQQAQPQRAEKNGMLPASYGPGEQNGTGGYQRAFPPRTNPEKHSQRKSNLAQVEHWARAQKGDSRSLPLDQTLPRQGPGQSLSFPENYQTLPKSTRHPSGGSSPPPRNLPSDYKYAQDRASHLKMSSEERRAHRDGTVWQLYEWQQRQQFRHGSPTAPICLGSPEFTDQGRSRSMLEVPRSISVPPSPSDIPPPGPPRVFPPRRPHTPAERVTVKPPDQRRSVDISLGDSPRRARGHAVKNSSHVDRRSMPSMGYMTHTVSAPSLHGKSADDTYLQLKKDLEYLDLKMTGRDLLKDRSLKPVKIAESDTDVKLSIFCEQDRVLQDLEDKIRALKENKDQLESVLEVLHRQMEQYRDQPQHLEKIAYQQKLLQEDLVHIRAELSRESTEMENAWNEYLKLENDVEQLKQTLQEQHRRAFFFQEKSQIQKDLWRIEDVTAGLSANKENFRILVESVKNPERKTVPLFPHPPVPSLSTSESKPPPQPSPPTSPVRTPLEVRLFPQLQTYVPYRPHPPQLRKVTSPLQSPTKAKPKVEDEAPPRPPLPELYSPEDQPPAVPPLPREATIIRHTSVRGLKRQSDERKRDRELGQCVNGDSRVELRSYVSEPELATLSGDMAQPSLGLVGPESRYQTLPGRGLSGSTSRLQQSSTIAPYVTLRRGLNAESSKATFPRPKSALERLYSGDHQRGKMSAEEQLERMKRHQKALVRERKRTLGQGERTGLPSSRYLSRPLPGDLGSVC [PLEKHA7]
HeLa Kyoto [1]
  solubility in G1/S (log2): -0.548
HeLa Kyoto [2]
  solubility change mitosis (log2): 0.454

## MDDSDTPTYYLQIEPQDGCHPGDSVERSVTCLPSASDENENQLDGDGHEHLTSSDSAMGKPQVSEQDSLNNNESCTLSCEVAAGENLQNTLCEASRDEQAFLGKDKKIPGKRSPRSKKGTAKKIPPGLFSGDIAPLMQEKVLSAVTYAVDDEEAAEVNANEQPEAPKLVLQSLFSLIRGEVEQLDSRALPLCLHQIAESYFQEEDYEKAMKFIQLERLYHEQLLANLSAIQEQWETKWKTVQPHTVTALRNSEKGFNGEDFERLTKICATHQDPLLSKHKIAAVEKSQERKCSTQLLVSEDPKEGGATTKESESKTCLGTESSKESQHTVEPLGSSPCCHQMDVQTDSPSLSVTAGKDHMEELLCSAEATLALHTQSSETAGSPSGPDSSEDACEDDSRLQLAQTEACQDVARIEGIAEDPKVFLSSKSKTEPLISPGCDRIPPALISEGKYSQAQRKELRLPLRDASEALPTDQLENNELNELQQPDLTDSDGKSPQAQADSDGSENVLCGNNQISDLGILLPEVCMAPEEKGDKDDQLNKETEDYLNSLLEGCLKDTEDSLSYEDNQDDDSDLLQDLSPEEASYSLQENLPSDESCLSLDDLAKRIEIAEVVPTEGLVSILKKRNDTVGDHPAQMQHKPSKRRVRFQEIDDSLDQDEVGGGSCILLVLLCIATVFLSVGGTALYCTFGDMESPVCTDFADNMDFYYTKLLQGVAELKHWIYLS [CNST]
HeLa Kyoto [1]
  solubility in G1/S (log2): 0.292
HeLa Kyoto [2]
  solubility change mitosis (log2): -0.0548

## MEPQEERETQVAAWLKKIFGDHPIPQYEVNPRTTEILHHLSERNRVRDRDVYLVIEDLKQKASEYESEAKYLQDLLMESVNFSPANLSSTGSRYLNALVDSAVALETKDTSLASFIPAVNDLTSDLFRTKSKSEEIKIELEKLEKNLTATLVLEKCLQEDVKKAELHLSTERAKVDNRRQNMDFLKAKSEEFRFGIKAAEEQLSARGMDASLSHQSLVALSEKLARLKQQTIPLKKKLESYLDLMPNPSLAQVKIEEAKRELDSIEAELTRRVDMMEL [HAUS1]
HeLa Kyoto [1]
  solubility in G1/S (log2): 0.463
HeLa Kyoto [2]
  solubility change mitosis (log2): 0.128
